This is an account of results in PMC11907795.

For the data set, the target named is PthA4-His (Xanthomonas citri subsp. citri (strain …, UniProt A0AAI8ETU3 1-1163)). Description: EMSA; poly dI-dC; unlabeled competitor 1x-800x. The settings on record: protein: recombinant; tags: His (N-terminal, pET28a); label: Cy5; blunt. A general note: Mobility shift assays separate free from complexed probe on a gel.

B1: ProCsGRAS9 (dsDNA)
DNA 1: TATATACATACACACACACACACACACACATAT
DNA 2: ATATGTGTGTGTGTGTGTGTGTGTATGTATATA
For B1, the binding result was “binds”.
